Assay results published in publication PMC4597100.

How the values were obtained:
[1] = target: MLL1(3745–3969) SET domain construct containing the WIN motif, AviTag, biotinylated (human) (UniProt Q03164)
[2] = target: MLL4(5308–5537) SET domain construct containing the WIN motif, AviTag, biotinylated (human) (UniProt O14686)

Chain of UniProt Q03164 (Q03164 3745-3969): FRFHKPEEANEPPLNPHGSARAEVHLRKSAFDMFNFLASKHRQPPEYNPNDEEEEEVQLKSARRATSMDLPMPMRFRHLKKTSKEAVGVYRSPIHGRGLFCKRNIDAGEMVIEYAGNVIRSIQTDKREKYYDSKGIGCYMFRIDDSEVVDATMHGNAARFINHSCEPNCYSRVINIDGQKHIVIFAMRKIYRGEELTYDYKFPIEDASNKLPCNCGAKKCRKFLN

ARTKQTARKSTGGKAPRY [histone H3 amino terminal peptide substrate (…-Y), unmodified]
KM (H3 peptide) of methyltransferase activity without WRAD, saturating SAM [1]: 430 µM
KM (H3 peptide) of methyltransferase activity without WRAD, saturating SAM [2]: 251 µM
